Results reported in the DeepSol protein solubility set.

Experiment: soluble on expression in E. coli; label from the status in PepcDB or PDB records

Soluble on expression in E. coli, not soluble:
MNTEICSILERQARIFNVQKYSLYDGPGIRTLIFFKGCPLRCKWCSNPEGLERKYQVMYMEDSCIHCGNCIPVCPVNIHSFANRDGETVPTHYEPPKHTINRNIDCVGCRKCETICPKKALSIAGKDLKISEVLEIIQQDALFYLSSGGGVTLGGGEVTAQPEFATNLLMECQRMGINTAIETCGYAKLDTLLMIAQFTDLFLYDLKHIDPERHYELTGVRNERILDNLTELIHRGFNIKIRMPLIRGMNDSQDTIRRTMEFLQPFSSCKNFQGIDLLPYHKLGINKYKQLDMNYTITEDLSFKAEELDEIARIIGGYDLRAAVIRH
MGSSHHHHHHGKTIFVIVPTNEEQVAFLEALAKQDELNFDWQNPPTEPGQPVVILIPSDMVEWFLEMLKAKGIPFTVYVEEGGSENLYFQGGGGGGQSPRDAHTHTHTHTDAHKHVLVHICVCVCACVCVSYSLHSTLALSLPAFSPHCHSLRLGFHVFRKQRARTKTAAVAEQRGLRWTHTTARTAKSGWPPRGHTDTHTHTHTHTHITWEYASSGMTLVFEARRLPFGSISEVYAASIQPIVALHALDKLPLWDRCMLVAVLPVVQQRHSASAAAAPPSTVVRPSLTRNDSDNADAAAASLSSATVRAANHEERVNASPELAGAPSLEDVALALTIVRALDELEVVYDSSISTRAELEQQQQQQPSLPAASLAEAPRRAFKQPKKTSEELLMEQLLQERFTDTAPYLLESSDEGGENSADAAVDVAMCFTVKGESLGIGSATIFGGHGYHP
MSLKSSFYYHRTMLGDKDKYADLKQRITALYHKHKGRYGYRRMTVALKHLGVHHNHKLIAKLMKQLTLSAKIRRQKYRSYKGQQGKIAKNYLKRRFKASKPHKRWLTDITEFKVGDHKLYLSPILDCYNNEIVSYTLSRRPTYDLVSQMLDKALDKTGKHRHKTLMLHSDQGWHYQMKPFREMLKKHQIKQSMSRKGNCLDNALMEGFFGTLKCETIYIEKPKTIEALERQIHEYIHYYNHERIQLKLKGLSPVQYRTQSLKEGHHHHHH
MKNNADFAYQAVYRYLVQLVDQGQGESALKMPSLRHLAQRLRVSISTVQSAYSLLEKEGRIYSVAKSGYYSAPRSAAIEVRARFDSDGDLLQMHHYYARRSGMSLLSSDAPTLLQAQESPLLAMEHELVRNYPRPRQADFQPFGELQLRIALAARYTRGAEHCWHADNVHVAPDVHGAFKAVIETLGLRGGAVLVESPCAWGLLRLLRSFDIRVIELPLDETGSLDPIQLERLLLENNVGLVVLPSMFNSVRGSVRPLCNSRAVAKVLDRHQVWVLENDSHGALQFAADQTCLRHLIDPQRLIIIGTFEKCLGPEAPYGYLLCKNLDARWQAYFLLRAFELPPTRQRAIARLCSSGRLDKHLAQLREALAGHLQLMMQHLNEHTDGLLRYEVPEGGCGIWARSVYPVDMRQVFNRLLAKRIVITPGELFSLESLYGQHLWISYAIDWSRDPGELFSALAQALHLARQP
MSLNPVDRPLLDIGLTRLEFLRISGKGLAGLTIAPALLSLLGCKQEDIDSGTVGLINTPKGVLVTQRARCTGCHRCEISCTNFNDGSVGTFFSRIKIHRNYFFGDNGVGSGGGLYGDLNYTADTCRQCKEPQCMNVCPIGAITWQQKEGCITVDHKRCIGCSACTTACPWMMATVNTESKKSSKCVLCGECANACPTGALKIIEWKDITEGHHHHHH
MCLNRVNEWVLEFNSRTKKLLIDLNKRLPGAKFSFADTYPAVLDLINNPTHYGFKIANTSCCNVDTSVGGLCLPNSKMCKNRQDFVFWDAFHPSDSANQILADHLFSSLLSSSSPSPAPKPRQ
MPLTPADVHNVAFSKPPIGKRGYNEDEVDAFLDLVEQELSRLIEENADLRQRVGELDKELADAKKAPRSGSAAPTPAPKAEPARVVEQPKAPAPAPAPAAAAAAAPAQGADAHMQAAKVLGLAQEMADRLTSDAKTESEQLLGNARTNSEQLVSDARTRSETMIADARQKSEALITDAQTRSETQLRQAKEKADALQADAEKKHTEIMATINQQRSVLEGRIEQLKTFEREYRVRLKSYLESQLEELEQRGSAVPVDGGQDSFAQGGSQSNYSQSYAKGNS
DYQIQISISDISEDRTEHQFTSNPEVKTPVGFEQHVESIPEMEDFGLSAAELMDESVPSDFQLDIGLVDDFLEIPSHETEVPQPKVASMQPDTNAKSQKPTVHRGELEAFIYGMGIDPNMVPSQNREQWFEQLGQSFSLMLIGLMETLHNRAVFKQTNRVNHTAFRKSENNPLKFSANLEDAIHNLYNRQTSSFLKPNAAIKEAFNDIENHEQALMQGVAGTVSSVMSLVEPNTIYSDALAKDNVINKVIPARKYAQSWKRFEGIHSQLTDELVNKESPFYLEDFAKHYELALKNKG
MGHHHHHHSHMSVSVHENRKSRASSGSINIYLFHKSSYADSVLTHLNLLRQQRLFTDVLLHAGNRTFPCHRAVLAACSRYFEAMFSGGLKESQDSEVNFDNSIHPEVLELLLDYAYSSRVIINEENAESLLEAGDMLEFQDIRDACAEFLEKNLHP
MSKLDLGRVDLLSMLGNSSSAGVDTAKGVIPFSTSGATWAVPRLSEDGITSHFLRRRGYVTMTQGGSRDQNAAVRKILSLIIAYDIQTQACFFISNEESMRITMAETMGVKDRPNARTNSWAEVSDSDINRGIAKALKEGNLTLDENQKDGFMKLVHAFVADILAQSGHYKPVTSVTYFSAPIDMESDYLDPFSIAIIRDVLDDSPFSELRYDARAMSELEDRDVPITRFSRVMAQMGNAMVRNIMVLNEAAQRKLRGLAVVGEIVHGRVRAPVRYLNDSFIQTLRSNINFHLLTRTTPERWAQSWIQAFGSLKGWVDAINGIADATTEEEKKKLAMQTSMDLELLSDLTPLIRDAATSVEKFVTFAPLSFYQGLGSVTQIRALDSSTNLAAVIVRYAAKEINLIPAYQSFQVPTVDVGVKKTAIMDQRLSLQLPEFSEDQFFGMLEQRMQNMSDSEVAELVDRIAKGETPFGDVVKQLPGTSTLLVTNGYYMGGLLTNEDKIIPGDASVPALLYMQAASFASSVRFPPGEYPVFHHESSNGDVRLTDQVSADAQLSHSAVETANPLNFLVACNVSVHTPSIAIDIIEPMPDLTRRGTTEYVHKGEIKVAAIPSLPPKSADRKAQVSRETAKFERVLYKARKGGAQVAAPIDLESLFGIAVNLAVPTVKHVYSPDSKTKLALDIIKGLESEGDKAAATRLLMTLARAYTGTYSSLGLRRRDEITGIAAQPSDVAMQEFALQSGVQTLKAVAKHTGIMEVATIEMVEEKVRSLDDNRFYEIAAEVVLRALKGM
MSELTKAQQYNFNKLQKKIRRNTGNAIADYNMIEDGDRIMVCLSGGKDSFTMLDILMSLKKSAPISFDLIAVNLDQKQPGFPAHILPEYLEKLGVEYKIVEEDTYSIVQDKIPEGKTTCSLCSRLRRGILYRTAKELGATKIALGHHRDDILETMFLNMFYGGKLKGMPPKLVSDNGEHVVIRPLAYCREKDIIKYADMRDYPIIPCNLCGSQPNMQRQNVKQMLNTWDKQFPGRIETMFTAMQNVVPSHLADFNTFDFKSINRDSGVINGGDIGFDKEEMPTLPVDADDAVAEFDPSLKLDVVNVD
MGSDKIHHHHHHMHLTKTWLAQLPLTDIQQVQPVSGGDINAAFQIITRHHQYFLKVQPHNDVTFFDHEVAGLRLLGAVTKTPRVIASGTIATDGYLLLDWLATGTGSQSALGAAVAKVHHQHHAQFGLDHDFTAGKLPKINHWQTDWATFYTQQRLDVLVNLAKEHHLWSETREMHYHRLRQQLLQDSHMHTVKPSLLHGDLWSGNYLFDTTGTPVLIDPDVFYGDREMDLAMTTIFGGFDTDFYQAYQAAYPVAPGMQDRLPSYQLYYLLAHLNLFGETYGPAVDRILMQY
MAHHHHHHMGGVTLHKVNTCPWWQRKNYEIEKSFFLRSAPPPLRKKRNQLRQYNHAENNSYTNIYTIKNPLKCKVVDKVSLVRQNALHEVYNVEIDHGGMFKYLEGHSCGVIPYYEDLIQADDKNNSQEGRKKRGNKFARLYSISSTNAENLSFAIRIHSYQEEENGCMQHKYGYCSGYIKELKKNDNIYITGAHGCFLLPDNVSEKNTNLILIATGTGISPYISFLKKIWGYQPGIHQQKKTYNGQVYLYYGVYYEDSILYLPELKYFQNMYPNNFHVEYVFSSIKNSDGTSHHVQDEIYKKRENFLRLFNELNCELYICGHKSIRAKIMDILKGENPVLDSEKKKRVHVEVY
MGSDKIHHHHHHATASESSKYIGLQLYSLRDLVKEEGIQKVLETAAKMGYKNLETASYDNGKIYGLAPAEFKKMVNDLGMKCTSAHLGQAFTKEKEAEVMSWWDQAIDAHNELGVKYMVQPWMPVNDKTTLDDLKMYCDYFNTVGYKTAAASIAFGYHNHDFEFRKIDDQLIYDFLLDNVSPNHVFFEMDVYWVMMGGGDPVAYLKNRPSQFKAIHIKDEKEIGASGKMNFKPIFDQMYANNVKDWYVEVEQYTNNDPVASVQQSYDFLNKADYVK

Soluble on expression in E. coli, soluble:
MAHHHHHHMQETQELRCATTQMAPAVIFPLPPPLRGSYIDRKPTAASFNEHHATASFRHHMIASADVSHRPRHFYFASGTRNDTGTRSVKEGERKQLKQQTNVEVDSVAYGDQLDELSARWAAKFYGQVTFGPRNYPYPSSRWLARRFQMKKHRIIKRFRFRRYKLAAVANLPFAKMIRVGMLPELKSSKTKRGDVVDPTLSGQLVSAVKNTGEKRKGQRTRPKSKYQV
MSLAQFYSAKRRTTTRQIITVSVNDLDSFGQGVARHNGKTLFIPGLLPQENAEVTVTEDKKQYARAKVVRRLSDSPERETPRCPHFGVCGGCQQQHASVDLQQRSKSAALARLMKHDVSEVIADVPWGYRRRARLSLNYLPKTQQLQMGFRKAGSSDIVDVKQCPILAPQLEALLPKVRACLGSLQAMRHLGHVELVQATSGTLMILRHTAPLSSADREKLERFSHSEGLDLYLAPDSEILETVSGEMPWYDSNGLRLTFSPRDFIQVNAGVNQKMVARALEWLDVQPEDRVLDLFCGMGNFTLPLATQAASVVGVEGVPALVEKGQQNARLNGLQNVTFYHENLEEDVTKQPWAKNGFDKVLLDPARAGAAGVMQQIIKLEPIRIVYVSCNPATLARDSEALLKAGYTIARLAMLDMFPHTGHLESMVLFSRVKEGHHHHHH
GPGSMASVSPSETGGTLITFLQQLRGTLVEIELKNASIVSGEIAYVDANMNTYMSHAKITSKGKNPVEVEEYMVRGSTIRYIIMPESLNTYDILKQASTKKNGASKK
MKETCDLLAFGAHPDDVEIGMGGTIAKYVRRGYRIVICDLTQAELSSNGTVDERQREAAEAARRLGVSERFNLGLPDRGLYVEEEAIRQIAAVIRRYRPRLVFAPYWEDRHPDHGRCARLVEEAVFSAGIRRYGAGELGDAHRVRAVYYYMINAFCRPHFLIDISETINDKLDSLRAYESQFQKRPGSVDTPLTNGYIEMIESRERWFGQQIGAAYAEGFLTKTPIHLSNLFEEER
QSALTQPASVSGSPGQSITISCTGTSSDVGGYNYVSWYQQHPGKAPKLMIYGVTNRPSGVSNRFSGSKSGNTASLTISGLQAGDEADYYCSSYTSTRTPYVFGTGTKVEIKRTVAAPSVFIFPPSDEQLKSGTASVVCLLNNFYPREAKVQWKVDNALQSGNSQESVTEQDSKDSTYSLSSTLTLSKADYEKHKVYACEVTHQGLSSPVTKSFNRGEC
MSLFIHIVGPGDSLFSIGRRYGASVDQIRGVNGLDETNIVPGQALLIPLYVYTVQPRDTLTAIAAKAFVPLERLRAANPGISPNALQAGAKITIPSISNYIAGTLSFYVLRNPDLDRELINDYAPYSSSISIFEYHIAPNGDIANQLNDAAAIETTWQRRVTPLATITNLTSGGFSTEIVHQVLNNPTARTNLVNNIYDLVSTRGYGGVTIDFEQVSAADRDLFTGFLRQLRDRLQAGGYVLTIAVPAKTSDNIPWLRGYDYGGIGAVVNYMFIMAYDWHHAGSEPGPVAPITEIRRTIEFTIAQVPSRKIIIGVPLYGYDWIIPYQPGTVASAISNQNAIERAMRYQAPIQYSAEYQSPFFRYSDQQGRTHEVWFEDVRSMSRKMQIVREYRLQAIGAWQLTLAEGHHHHHH
